Measured values from patent US20120045819A1 (published 2012).
Positions of bridges follow the written chain, without caps; N, C: chain ends. No end group written: not given here. *: point of attachment. NHNH2 = NN*

T1: native human factor VIII (nhfVIII) (human, UniProt P00451 20-2351)
T1 chain 1: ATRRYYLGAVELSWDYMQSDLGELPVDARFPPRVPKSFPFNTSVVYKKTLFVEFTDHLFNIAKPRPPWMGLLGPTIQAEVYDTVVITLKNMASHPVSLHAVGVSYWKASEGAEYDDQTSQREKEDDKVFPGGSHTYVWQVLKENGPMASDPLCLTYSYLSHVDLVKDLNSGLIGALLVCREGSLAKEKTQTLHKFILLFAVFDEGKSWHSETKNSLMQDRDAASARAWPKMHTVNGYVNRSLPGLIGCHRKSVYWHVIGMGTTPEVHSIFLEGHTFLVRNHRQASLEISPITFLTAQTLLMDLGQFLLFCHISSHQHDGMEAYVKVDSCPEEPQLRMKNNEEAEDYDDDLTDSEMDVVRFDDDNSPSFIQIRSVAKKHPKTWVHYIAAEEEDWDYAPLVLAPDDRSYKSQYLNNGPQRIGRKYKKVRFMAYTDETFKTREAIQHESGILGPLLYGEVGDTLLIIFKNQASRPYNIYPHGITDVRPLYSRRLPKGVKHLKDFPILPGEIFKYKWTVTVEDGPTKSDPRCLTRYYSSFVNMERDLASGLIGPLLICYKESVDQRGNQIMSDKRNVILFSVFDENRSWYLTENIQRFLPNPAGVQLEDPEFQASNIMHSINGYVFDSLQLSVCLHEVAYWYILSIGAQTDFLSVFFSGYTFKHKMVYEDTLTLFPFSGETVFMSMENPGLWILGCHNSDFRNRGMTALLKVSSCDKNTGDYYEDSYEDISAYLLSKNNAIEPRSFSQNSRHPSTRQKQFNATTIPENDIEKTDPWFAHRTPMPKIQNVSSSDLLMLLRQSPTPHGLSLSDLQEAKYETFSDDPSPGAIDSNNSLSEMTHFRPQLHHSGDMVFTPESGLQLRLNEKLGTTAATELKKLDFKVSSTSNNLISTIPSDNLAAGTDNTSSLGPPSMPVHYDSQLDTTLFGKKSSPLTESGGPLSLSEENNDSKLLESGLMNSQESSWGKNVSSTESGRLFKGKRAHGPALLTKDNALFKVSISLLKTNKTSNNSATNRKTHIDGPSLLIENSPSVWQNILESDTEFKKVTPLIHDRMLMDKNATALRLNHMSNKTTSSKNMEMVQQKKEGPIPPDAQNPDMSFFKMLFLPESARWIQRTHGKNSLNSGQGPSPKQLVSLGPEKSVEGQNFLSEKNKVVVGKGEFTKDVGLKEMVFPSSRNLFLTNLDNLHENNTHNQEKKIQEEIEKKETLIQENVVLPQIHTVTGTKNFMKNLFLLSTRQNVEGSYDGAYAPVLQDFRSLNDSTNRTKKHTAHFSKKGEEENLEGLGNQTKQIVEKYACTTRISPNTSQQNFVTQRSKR
T1 chain 2: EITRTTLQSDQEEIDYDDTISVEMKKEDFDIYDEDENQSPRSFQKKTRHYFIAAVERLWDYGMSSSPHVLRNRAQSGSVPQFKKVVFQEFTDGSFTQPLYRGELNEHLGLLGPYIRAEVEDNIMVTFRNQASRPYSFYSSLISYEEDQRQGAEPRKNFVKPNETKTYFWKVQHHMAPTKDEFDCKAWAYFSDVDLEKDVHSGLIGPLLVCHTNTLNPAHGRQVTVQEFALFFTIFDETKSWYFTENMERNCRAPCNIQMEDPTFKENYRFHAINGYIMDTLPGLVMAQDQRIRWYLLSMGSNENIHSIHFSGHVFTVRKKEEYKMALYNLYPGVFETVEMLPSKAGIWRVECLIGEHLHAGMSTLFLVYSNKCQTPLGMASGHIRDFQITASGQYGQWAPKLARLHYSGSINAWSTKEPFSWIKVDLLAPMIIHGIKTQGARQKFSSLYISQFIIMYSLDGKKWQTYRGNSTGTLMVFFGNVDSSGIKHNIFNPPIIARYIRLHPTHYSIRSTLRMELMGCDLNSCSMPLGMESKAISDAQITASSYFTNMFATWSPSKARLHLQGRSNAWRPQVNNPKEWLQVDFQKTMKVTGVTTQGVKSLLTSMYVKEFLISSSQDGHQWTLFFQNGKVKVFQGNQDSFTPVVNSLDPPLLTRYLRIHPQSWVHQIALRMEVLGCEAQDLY

B1: CS-454 (AEGTGDHLCGAWFRPCDADPGPEGGGS-NHNH2) (peptide)
peptide: AEGTGDHLCGAWFRPCDADPGPEGGGS-NHNH2
modifications: disulfide 9-16
notes: synthetic peptide immobilized on Toyopearl Formyl 650-M resin by hydrazone bond
B2: CS-456 (AEGTGDFGCSWLFPCPFDPGPEGGGS-NHNH2) (peptide)
peptide: AEGTGDFGCSWLFPCPFDPGPEGGGS-NHNH2
modifications: disulfide 9-15
notes: as for B1
B3: CS-458 (AEGTGDFCWVFAFDHCHDPGPEGGGS-NHNH2) (peptide)
peptide: AEGTGDFCWVFAFDHCHDPGPEGGGS-NHNH2
modifications: disulfide 8-16
notes: as for B1

Biological target: T1, native human factor VIII (nhfVIII)
Experiment: batch binding to peptide beads; fractions by sandwich ELISA; % of total recovered

Binder | % of total recovered in Eluate [%] | % of total recovered in Unbound [%] | % of total recovered in Wash [%]
B1 | 21 | 67 | 12
B2 | 16 | 70 | 14
B3 | 39 | 48 | 13
